B1: GLS3000 N53D (antibody, name in Kabat numbering, V domains shown)
VH: QVQLVESGGGVVQPGRSLRLSCAASGFTFSNAWMHWVRQAPGKGLEWVAQIKAKSNNYATYYAESVKGRFTISRDDSKNSLYLQMNSLKTEDTAVYYCRYVHYGAYYGVDAWGQGTTVTVSS
VL: DIVMTQSPLSLPVTPGEPASISCRSSQSLVHSNRNTYLHWYQQKPGQAPRLLIYKVSDRFSGVPDRFSGSGSGTDFTLKISRVEAEDVGVYYCGQGTQVPYTFGQGTKLEIK
notes: one-arm format as m2
B2: GLS3000 P95D (antibody, name in Kabat numbering, V domains shown)
VH: QVQLVESGGGVVQPGRSLRLSCAASGFTFSNAWMHWVRQAPGKGLEWVAQIKAKSNNYATYYAESVKGRFTISRDDSKNSLYLQMNSLKTEDTAVYYCRYVHYGAYYGVDAWGQGTTVTVSS
VL: DIVMTQSPLSLPVTPGEPASISCRSSQSLVHSNRNTYLHWYQQKPGQAPRLLIYKVSNRFSGVPDRFSGSGSGTDFTLKISRVEAEDVGVYYCGQGTQVDYTFGQGTKLEIK
notes: one-arm format as m2
B3: GLS3000 N53K (antibody, name in Kabat numbering, V domains shown)
VH: QVQLVESGGGVVQPGRSLRLSCAASGFTFSNAWMHWVRQAPGKGLEWVAQIKAKSNNYATYYAESVKGRFTISRDDSKNSLYLQMNSLKTEDTAVYYCRYVHYGAYYGVDAWGQGTTVTVSS
VL: DIVMTQSPLSLPVTPGEPASISCRSSQSLVHSNRNTYLHWYQQKPGQAPRLLIYKVSKRFSGVPDRFSGSGSGTDFTLKISRVEAEDVGVYYCGQGTQVPYTFGQGTKLEIK
notes: one-arm format as m2
B4: GLS3000 N53P (antibody, name in Kabat numbering, V domains shown)
VH: QVQLVESGGGVVQPGRSLRLSCAASGFTFSNAWMHWVRQAPGKGLEWVAQIKAKSNNYATYYAESVKGRFTISRDDSKNSLYLQMNSLKTEDTAVYYCRYVHYGAYYGVDAWGQGTTVTVSS
VL: DIVMTQSPLSLPVTPGEPASISCRSSQSLVHSNRNTYLHWYQQKPGQAPRLLIYKVSPRFSGVPDRFSGSGSGTDFTLKISRVEAEDVGVYYCGQGTQVPYTFGQGTKLEIK
notes: one-arm format as m2
B5: GLS3000 N53V (antibody, name in Kabat numbering, V domains shown)
VH: QVQLVESGGGVVQPGRSLRLSCAASGFTFSNAWMHWVRQAPGKGLEWVAQIKAKSNNYATYYAESVKGRFTISRDDSKNSLYLQMNSLKTEDTAVYYCRYVHYGAYYGVDAWGQGTTVTVSS
VL: DIVMTQSPLSLPVTPGEPASISCRSSQSLVHSNRNTYLHWYQQKPGQAPRLLIYKVSVRFSGVPDRFSGSGSGTDFTLKISRVEAEDVGVYYCGQGTQVPYTFGQGTKLEIK
notes: one-arm format as m2
B6: GLS3000 N53W (antibody, name in Kabat numbering, V domains shown)
VH: QVQLVESGGGVVQPGRSLRLSCAASGFTFSNAWMHWVRQAPGKGLEWVAQIKAKSNNYATYYAESVKGRFTISRDDSKNSLYLQMNSLKTEDTAVYYCRYVHYGAYYGVDAWGQGTTVTVSS
VL: DIVMTQSPLSLPVTPGEPASISCRSSQSLVHSNRNTYLHWYQQKPGQAPRLLIYKVSWRFSGVPDRFSGSGSGTDFTLKISRVEAEDVGVYYCGQGTQVPYTFGQGTKLEIK
notes: one-arm format as m2
B7: GLS3000 N53G (antibody, name in Kabat numbering, V domains shown)
VH: QVQLVESGGGVVQPGRSLRLSCAASGFTFSNAWMHWVRQAPGKGLEWVAQIKAKSNNYATYYAESVKGRFTISRDDSKNSLYLQMNSLKTEDTAVYYCRYVHYGAYYGVDAWGQGTTVTVSS
VL: DIVMTQSPLSLPVTPGEPASISCRSSQSLVHSNRNTYLHWYQQKPGQAPRLLIYKVSGRFSGVPDRFSGSGSGTDFTLKISRVEAEDVGVYYCGQGTQVPYTFGQGTKLEIK
notes: one-arm format as m2
B8: GLS3000 N53M (antibody, name in Kabat numbering, V domains shown)
VH: QVQLVESGGGVVQPGRSLRLSCAASGFTFSNAWMHWVRQAPGKGLEWVAQIKAKSNNYATYYAESVKGRFTISRDDSKNSLYLQMNSLKTEDTAVYYCRYVHYGAYYGVDAWGQGTTVTVSS
VL: DIVMTQSPLSLPVTPGEPASISCRSSQSLVHSNRNTYLHWYQQKPGQAPRLLIYKVSMRFSGVPDRFSGSGSGTDFTLKISRVEAEDVGVYYCGQGTQVPYTFGQGTKLEIK
notes: one-arm format as m2
B9: GLS3000 N53Y (antibody, name in Kabat numbering, V domains shown)
VH: QVQLVESGGGVVQPGRSLRLSCAASGFTFSNAWMHWVRQAPGKGLEWVAQIKAKSNNYATYYAESVKGRFTISRDDSKNSLYLQMNSLKTEDTAVYYCRYVHYGAYYGVDAWGQGTTVTVSS
VL: DIVMTQSPLSLPVTPGEPASISCRSSQSLVHSNRNTYLHWYQQKPGQAPRLLIYKVSYRFSGVPDRFSGSGSGTDFTLKISRVEAEDVGVYYCGQGTQVPYTFGQGTKLEIK
notes: one-arm format as m2
B10: GLS3000 N53Q (antibody, name in Kabat numbering, V domains shown)
VH: QVQLVESGGGVVQPGRSLRLSCAASGFTFSNAWMHWVRQAPGKGLEWVAQIKAKSNNYATYYAESVKGRFTISRDDSKNSLYLQMNSLKTEDTAVYYCRYVHYGAYYGVDAWGQGTTVTVSS
VL: DIVMTQSPLSLPVTPGEPASISCRSSQSLVHSNRNTYLHWYQQKPGQAPRLLIYKVSQRFSGVPDRFSGSGSGTDFTLKISRVEAEDVGVYYCGQGTQVPYTFGQGTKLEIK
notes: one-arm format as m2
B11: GLS3000 N53H (antibody, name in Kabat numbering, V domains shown)
VH: QVQLVESGGGVVQPGRSLRLSCAASGFTFSNAWMHWVRQAPGKGLEWVAQIKAKSNNYATYYAESVKGRFTISRDDSKNSLYLQMNSLKTEDTAVYYCRYVHYGAYYGVDAWGQGTTVTVSS
VL: DIVMTQSPLSLPVTPGEPASISCRSSQSLVHSNRNTYLHWYQQKPGQAPRLLIYKVSHRFSGVPDRFSGSGSGTDFTLKISRVEAEDVGVYYCGQGTQVPYTFGQGTKLEIK
notes: one-arm format as m2
B12: GLS3000 P95A (antibody, name in Kabat numbering, V domains shown)
VH: QVQLVESGGGVVQPGRSLRLSCAASGFTFSNAWMHWVRQAPGKGLEWVAQIKAKSNNYATYYAESVKGRFTISRDDSKNSLYLQMNSLKTEDTAVYYCRYVHYGAYYGVDAWGQGTTVTVSS
VL: DIVMTQSPLSLPVTPGEPASISCRSSQSLVHSNRNTYLHWYQQKPGQAPRLLIYKVSNRFSGVPDRFSGSGSGTDFTLKISRVEAEDVGVYYCGQGTQVAYTFGQGTKLEIK
notes: one-arm format as m2
B13: GLS3000 N53I (antibody, name in Kabat numbering, V domains shown)
VH: QVQLVESGGGVVQPGRSLRLSCAASGFTFSNAWMHWVRQAPGKGLEWVAQIKAKSNNYATYYAESVKGRFTISRDDSKNSLYLQMNSLKTEDTAVYYCRYVHYGAYYGVDAWGQGTTVTVSS
VL: DIVMTQSPLSLPVTPGEPASISCRSSQSLVHSNRNTYLHWYQQKPGQAPRLLIYKVSIRFSGVPDRFSGSGSGTDFTLKISRVEAEDVGVYYCGQGTQVPYTFGQGTKLEIK
notes: one-arm format as m2
B14: GLS3000 P95E (antibody, name in Kabat numbering, V domains shown)
VH: QVQLVESGGGVVQPGRSLRLSCAASGFTFSNAWMHWVRQAPGKGLEWVAQIKAKSNNYATYYAESVKGRFTISRDDSKNSLYLQMNSLKTEDTAVYYCRYVHYGAYYGVDAWGQGTTVTVSS
VL: DIVMTQSPLSLPVTPGEPASISCRSSQSLVHSNRNTYLHWYQQKPGQAPRLLIYKVSNRFSGVPDRFSGSGSGTDFTLKISRVEAEDVGVYYCGQGTQVEYTFGQGTKLEIK
notes: one-arm format as m2
B15: GLS3000 N53T (antibody, name in Kabat numbering, V domains shown)
VH: QVQLVESGGGVVQPGRSLRLSCAASGFTFSNAWMHWVRQAPGKGLEWVAQIKAKSNNYATYYAESVKGRFTISRDDSKNSLYLQMNSLKTEDTAVYYCRYVHYGAYYGVDAWGQGTTVTVSS
VL: DIVMTQSPLSLPVTPGEPASISCRSSQSLVHSNRNTYLHWYQQKPGQAPRLLIYKVSTRFSGVPDRFSGSGSGTDFTLKISRVEAEDVGVYYCGQGTQVPYTFGQGTKLEIK
notes: one-arm format as m2
B16: GLS3000 N53R (antibody, name in Kabat numbering, V domains shown)
VH: QVQLVESGGGVVQPGRSLRLSCAASGFTFSNAWMHWVRQAPGKGLEWVAQIKAKSNNYATYYAESVKGRFTISRDDSKNSLYLQMNSLKTEDTAVYYCRYVHYGAYYGVDAWGQGTTVTVSS
VL: DIVMTQSPLSLPVTPGEPASISCRSSQSLVHSNRNTYLHWYQQKPGQAPRLLIYKVSRRFSGVPDRFSGSGSGTDFTLKISRVEAEDVGVYYCGQGTQVPYTFGQGTKLEIK
notes: one-arm format as m2
B17: GLS3000 N53S (antibody, name in Kabat numbering, V domains shown)
VH: QVQLVESGGGVVQPGRSLRLSCAASGFTFSNAWMHWVRQAPGKGLEWVAQIKAKSNNYATYYAESVKGRFTISRDDSKNSLYLQMNSLKTEDTAVYYCRYVHYGAYYGVDAWGQGTTVTVSS
VL: DIVMTQSPLSLPVTPGEPASISCRSSQSLVHSNRNTYLHWYQQKPGQAPRLLIYKVSSRFSGVPDRFSGSGSGTDFTLKISRVEAEDVGVYYCGQGTQVPYTFGQGTKLEIK
notes: one-arm format as m2
B18: GLS3000 N53F (antibody, name in Kabat numbering, V domains shown)
VH: QVQLVESGGGVVQPGRSLRLSCAASGFTFSNAWMHWVRQAPGKGLEWVAQIKAKSNNYATYYAESVKGRFTISRDDSKNSLYLQMNSLKTEDTAVYYCRYVHYGAYYGVDAWGQGTTVTVSS
VL: DIVMTQSPLSLPVTPGEPASISCRSSQSLVHSNRNTYLHWYQQKPGQAPRLLIYKVSFRFSGVPDRFSGSGSGTDFTLKISRVEAEDVGVYYCGQGTQVPYTFGQGTKLEIK
notes: one-arm format as m2
B19: GLS3000 N53L (antibody, name in Kabat numbering, V domains shown)
VH: QVQLVESGGGVVQPGRSLRLSCAASGFTFSNAWMHWVRQAPGKGLEWVAQIKAKSNNYATYYAESVKGRFTISRDDSKNSLYLQMNSLKTEDTAVYYCRYVHYGAYYGVDAWGQGTTVTVSS
VL: DIVMTQSPLSLPVTPGEPASISCRSSQSLVHSNRNTYLHWYQQKPGQAPRLLIYKVSLRFSGVPDRFSGSGSGTDFTLKISRVEAEDVGVYYCGQGTQVPYTFGQGTKLEIK
notes: one-arm format as m2
B20: GLS3000 N53E (antibody, name in Kabat numbering, V domains shown)
VH: QVQLVESGGGVVQPGRSLRLSCAASGFTFSNAWMHWVRQAPGKGLEWVAQIKAKSNNYATYYAESVKGRFTISRDDSKNSLYLQMNSLKTEDTAVYYCRYVHYGAYYGVDAWGQGTTVTVSS
VL: DIVMTQSPLSLPVTPGEPASISCRSSQSLVHSNRNTYLHWYQQKPGQAPRLLIYKVSERFSGVPDRFSGSGSGTDFTLKISRVEAEDVGVYYCGQGTQVPYTFGQGTKLEIK
notes: one-arm format as m2

These results are taken from US20220040297A1 (Chugai, published 2022).

The target in the assay is CD3ε homodimer protein (human, UniProt P07766 23-126, limits assumed). The assay can be described thus: SPR, immobilized CD3ε homodimer.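 Further: biacore T200 surface plasmon resonance at 25 °C, antibody variants flowed as analytes over amine-coupled CD3ε homodimer on a CM4 chip, variant binding amount divided by that of GLS3000 antibody.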
Chain of CD3ε homodimer protein (P07766 23-126 limits assumed): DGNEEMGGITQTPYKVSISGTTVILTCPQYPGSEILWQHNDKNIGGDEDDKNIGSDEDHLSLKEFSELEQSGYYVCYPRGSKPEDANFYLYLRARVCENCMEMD
Regarding B1, the “ratio of amounts bound (vs GLS3000)” value is 0.34.
On to B2, for which the “ratio of amounts bound (vs GLS3000)” value was 0.24.
For B3, the “ratio of amounts bound (vs GLS3000)” value was 1.08.
Take B4: the “ratio of amounts bound (vs GLS3000)” value is 0.81.
With B5, the “ratio of amounts bound (vs GLS3000)” value came to 0.56.
Take B6: the “ratio of amounts bound (vs GLS3000)” value amounted to 0.81.
For B7, the “ratio of amounts bound (vs GLS3000)” value came to 0.76.
Take B8: the “ratio of amounts bound (vs GLS3000)” value came out at 0.62.
With B9 the figure was 0.67; with B10, 0.77; with B11, 1.18.
As to B12, the “ratio of amounts bound (vs GLS3000)” value amounted to 0.63.
With B13, the “ratio of amounts bound (vs GLS3000)” value turned out to be 0.5.
B14: the “ratio of amounts bound (vs GLS3000)” value stood at 0.39.
Take B15: the “ratio of amounts bound (vs GLS3000)” value was 0.56.
As for B16, the “ratio of amounts bound (vs GLS3000)” value is 1.58.
Turning to B17, the “ratio of amounts bound (vs GLS3000)” value stood at 0.69.
As to B18, the “ratio of amounts bound (vs GLS3000)” value worked out at 0.69.
B19: the “ratio of amounts bound (vs GLS3000)” value is 0.56.
For B20 the value was 0.54.
